Changes are numbered by the printed parent chain. Like-named read-outs stand apart in the source and are kept apart here.
T1: cynomolgus C5 (Macaca fascicularis) (cynomolgus (Macaca fascicularis), Beta and alpha chains are joined by disulfide bonds; the protein is a serum glycoprotein.)
T1 beta: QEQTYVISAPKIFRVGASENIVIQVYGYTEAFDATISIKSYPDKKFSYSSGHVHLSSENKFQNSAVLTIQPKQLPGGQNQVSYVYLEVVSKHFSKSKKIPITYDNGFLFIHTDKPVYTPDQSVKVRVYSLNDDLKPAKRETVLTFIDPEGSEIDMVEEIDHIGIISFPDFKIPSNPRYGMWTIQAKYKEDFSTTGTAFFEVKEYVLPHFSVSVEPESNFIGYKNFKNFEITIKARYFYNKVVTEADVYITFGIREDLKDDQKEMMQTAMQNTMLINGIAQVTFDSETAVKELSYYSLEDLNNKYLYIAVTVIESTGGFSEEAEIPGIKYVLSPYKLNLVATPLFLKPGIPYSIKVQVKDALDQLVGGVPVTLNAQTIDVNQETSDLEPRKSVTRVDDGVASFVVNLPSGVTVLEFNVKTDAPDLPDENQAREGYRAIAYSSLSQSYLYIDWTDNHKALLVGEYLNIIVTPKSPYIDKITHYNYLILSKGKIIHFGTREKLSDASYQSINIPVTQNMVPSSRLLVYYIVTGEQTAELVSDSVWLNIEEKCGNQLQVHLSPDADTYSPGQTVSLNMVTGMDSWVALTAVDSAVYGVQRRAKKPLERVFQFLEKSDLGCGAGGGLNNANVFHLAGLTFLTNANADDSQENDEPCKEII
T1 alpha: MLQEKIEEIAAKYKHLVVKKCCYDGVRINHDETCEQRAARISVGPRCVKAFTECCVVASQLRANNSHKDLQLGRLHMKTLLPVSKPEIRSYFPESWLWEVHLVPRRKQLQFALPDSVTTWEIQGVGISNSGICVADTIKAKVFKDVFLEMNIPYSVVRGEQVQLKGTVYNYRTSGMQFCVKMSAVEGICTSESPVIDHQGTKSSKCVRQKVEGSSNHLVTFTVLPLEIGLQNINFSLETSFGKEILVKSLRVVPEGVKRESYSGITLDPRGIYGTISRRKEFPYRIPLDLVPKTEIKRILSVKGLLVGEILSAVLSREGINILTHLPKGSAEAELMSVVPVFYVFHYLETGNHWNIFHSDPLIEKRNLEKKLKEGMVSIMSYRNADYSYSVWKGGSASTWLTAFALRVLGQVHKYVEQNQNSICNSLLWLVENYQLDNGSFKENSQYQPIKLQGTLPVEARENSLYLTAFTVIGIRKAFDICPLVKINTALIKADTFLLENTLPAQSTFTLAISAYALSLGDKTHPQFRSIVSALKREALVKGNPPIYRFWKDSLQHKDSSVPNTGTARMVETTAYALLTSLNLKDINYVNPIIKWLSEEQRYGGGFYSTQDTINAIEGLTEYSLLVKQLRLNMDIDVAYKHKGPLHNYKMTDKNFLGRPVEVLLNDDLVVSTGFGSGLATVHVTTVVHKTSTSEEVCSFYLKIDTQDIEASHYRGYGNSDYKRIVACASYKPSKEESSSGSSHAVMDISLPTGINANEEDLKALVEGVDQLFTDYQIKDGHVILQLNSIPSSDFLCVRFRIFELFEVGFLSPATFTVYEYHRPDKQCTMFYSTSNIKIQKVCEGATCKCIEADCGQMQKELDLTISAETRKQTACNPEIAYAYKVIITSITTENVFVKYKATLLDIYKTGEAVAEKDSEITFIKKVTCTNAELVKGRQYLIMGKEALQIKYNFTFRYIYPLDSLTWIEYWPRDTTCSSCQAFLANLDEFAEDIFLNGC

B1: MOR08111 (antibody, human IgG1, lambda, L234A L235A, V domains shown)
VH: EVTLKESGPALVKPTQTLTLTCTFSGFSLSTSGGGVSWIRQPPGKALEWLANIDDADIKDYSPSLKSRLTISKDTSKNQVVLTMTNMDPVDTATYYCARGPYGFDSWGQGTLVTVSS
VL: ESALTQPASVSGSPGQSITISCTGTSSDIGTYNYVSWYQQHPGKAPKLMIYDDSNRPSGVSNRFSGSKSGNTASLTISGLQAEDEADYYCQSYDSQSIVFGGGTKLTVLG
notes: Germlined final IgG, human IgG1AA format
B2: MOR07086 hu IgG1 (antibody, V domains shown)
VH: QVQLVQSGAEVKKPGSSVKVSCKASGGTFSSYAISWVRQAPGQGLEWMGGIGPFFGTANYAQKFQGRVTITADESTSTAYMELSSLRSEDTAVYYCARDTPYFDYWGQGTLVTVSS
VL: DIELTQPPSVSVAPGQTARISCSGDSIPNYYVYWYQQKPGQAPVLVIYDDSNRPSGIPERFSGSNSGNTATLTISGTQAEDEADYYCQSFDSSLNAEVFGGGTKLTVL
B3: MOR08114 (antibody, human IgG1, lambda, L234A L235A, V domains shown)
VH: EVQLVQSGAEVKKPGESLKISCKGSGYSFTSYYIGWVRQMPGKGLEWMGIIDPTDSQTAYSPSFQGQVTISADKSISTAYLQWSSLKASDTAMYYCARYMMRGFDHWGQGTLVTVSS
VL: SYELTQPPSVSVAPGQTARISCSGDSLGDYYAYWYQQKPGQAPVLVIYKDNNRPSGIPERFSGSNSGNTATLTISGTQAEDEADYYCQTWDTGESGVFGGGTKLTVLG
notes: Germlined final IgG, human IgG1AA format; also called Antibody 8114
B4: MOR07872 (Fab, V domains shown)
VH: B3 VH with E1Q, T54S, Q57H, A59T
VL: DIELTQPPSVSVAPGQTARISCSGDSLGDYYAYWYQQKPGQAPVLVIYKDNNRPSGIPERFSGSNSGNTATLTISGTQAEDEADYYCQTWDILPHGLVFGGGTKLTVLG
notes: light CS or A
B5: MOR07873 (Fab, V domains shown)
VH: B3 VH with E1Q, T54S, Q57H, A59T
VL: B4 VL with T89A, D91T, I92D, L93S, H95T
notes: light CS or A

Assays:
[1] = target: T2, human complement C5 protein (human, UniProt P01031 19-673; P01031 678-1676, Beta and alpha chains are joined by disulfide bonds. C5 was biotinylated in some assays.)
[2] = target: T2, human complement C5 protein; remark: listed apart in the source
[3] = target: cynomolgus C5 (Macaca fascicularis) (cynomolgus (Macaca fascicularis))
[4] = target: T2, human complement C5 protein; remark: listed apart in the source
[5] = target: T2, human complement C5 protein; remark: listed apart in the source
[6] = target: T2, human complement C5 protein; experiment: SET (MSD), IgG, 1st measurement
Protocol: (§1) In order to improve the sensitivity and accuracy of the SET method, it was transferred from classical ELISA to ECL based technology (Haenel et al., Anal Biochem 339:182-184 (2005)).
(§2) 1 mg/ml goat-anti-human (Fab)₂ fragment specific antibodies (Dianova) were labelled with ECL Sulfo-TAG™ NHS-Ester (Meso Scale Discovery, Gaithersburg, Md., USA) according to the manufacturer's instructions. The experiments were carried out in polypropylene microliter plates and PBS pH 7.4 with 0.5% BSA and 0.02% Tween 20 as assay buffer. […] Wells without antigen were used to determine Bmax values; wells containing neither antigen nor IgG were used to determine background. After addition of e.g. 10 pM IgG (final concentration in 60 μl final volume), the mixture was incubated over night at RT. The applied IgG concentration was similar to or below the expected KD.
(§3) Streptavidin MSD plates were coated with 0.2 μg/ml biotinylated human C5 (30 μl/well) and blocked with 5% BSA in PBS. Subsequently the equilibrated samples were transferred to those plates (30 μl per well) and incubated for 20 min. After washing, 30 μl/well of the ECL Sulfo-tag labeled detection antibody (goat anti-human (Fab)₂) in a final dilution of 1:1500 was added to the MSD plate and incubated for 30 min on an Eppendorf shaker (700 rpm).

[7] = target: T2, human complement C5 protein; experiment: SET (MSD), IgG, 2nd measurement
Protocol: as §1, §2, §3

[8] = target: T2, human complement C5 protein; experiment: SPR (Biacore), IgG captured via anti-human Fc, C5 injected
Protocol: (§4) A CM4 chip was coated with 50 μg/ml goat anti-human Fc antibody (500-2000 RU) in 10 mM acetate buffer, pH 4.5, using standard EDC-NHS amine coupling chemistry. Each anti-human C5 IgG was captured on the chip in HBS-EP buffer at constant flow rate of 10 μl/min for a contact time leading to a ligand density around 20 RU. […] Each cycle was completed with two regeneration steps with phosphoric acid. All running conditions were carried out at 25° C. in 1× HBS-EP buffer. The resulting signals were adjusted by double referencing, substracting the refraction index values from the reference flow cell and the binding step with no analyte. Data were collected at 10 Hz and analyzed using the Biacore T100 Evaluation Software Version 1.1 (GE). This program uses a global fitting analysis method for the determination of rate and affinity constants for each interaction. […]

[9] = target: T2, human complement C5 protein; experiment: cell-based or functional assay
[10] = target: T1, cynomolgus C5 (Macaca fascicularis); experiment: cell-based or functional assay
[11] = target: T2, human complement C5 protein; experiment: cell-based or functional assay; remark: listed apart in the source
[12] = target: T1, cynomolgus C5 (Macaca fascicularis); experiment: SET (MSD), IgG, 1st measurement
Protocol: as §1, §2, §3

[13] = target: T1, cynomolgus C5 (Macaca fascicularis); experiment: SET (MSD), IgG, 2nd measurement
Protocol: as §1, §2, §3

[14] = target: T1, cynomolgus C5 (Macaca fascicularis); experiment: SPR (Biacore), IgG captured via anti-human Fc, C5 injected
Protocol: as §4

[15] = target: T1, cynomolgus C5 (Macaca fascicularis); experiment: affinity chromatography
[16] = target: T2, human complement C5 protein; experiment: cell-based or functional assay; remark: listed apart in the source
human complement C3 = target: T3, human complement C3 (human, UniProt P01024 23-667; P01024 672-1663); experiment: solution ELISA: Fab with biotinylated antigen on NeutrAvidin plate, His-tag detection [huC3 panel]
T3 construct: Counter target in the ELISAs, coated directly or biotinylated; also called human C3
Protocol: Fabs were incubated with biotinylated antigen on a Neutravidin plate and detected via the histidin tag.

T3 sequence (P01024 23-667 limits assumed, chain 1 of 2): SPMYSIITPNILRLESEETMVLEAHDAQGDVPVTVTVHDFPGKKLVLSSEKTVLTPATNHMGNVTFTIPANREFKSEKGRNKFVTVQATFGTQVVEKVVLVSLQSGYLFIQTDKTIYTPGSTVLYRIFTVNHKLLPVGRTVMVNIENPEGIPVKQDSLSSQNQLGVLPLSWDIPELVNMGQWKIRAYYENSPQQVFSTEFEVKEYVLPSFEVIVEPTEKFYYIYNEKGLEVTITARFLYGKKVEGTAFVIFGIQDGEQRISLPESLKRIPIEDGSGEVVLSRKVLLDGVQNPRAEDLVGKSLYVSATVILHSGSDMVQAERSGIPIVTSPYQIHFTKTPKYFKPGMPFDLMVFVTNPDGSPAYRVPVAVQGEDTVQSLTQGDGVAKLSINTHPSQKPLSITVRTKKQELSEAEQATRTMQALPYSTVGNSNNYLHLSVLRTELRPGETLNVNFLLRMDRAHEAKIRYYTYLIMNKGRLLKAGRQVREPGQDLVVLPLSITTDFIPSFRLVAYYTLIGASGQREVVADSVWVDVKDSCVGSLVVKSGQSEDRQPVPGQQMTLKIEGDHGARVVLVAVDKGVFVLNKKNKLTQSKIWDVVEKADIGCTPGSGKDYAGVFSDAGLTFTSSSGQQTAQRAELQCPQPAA
T3 sequence (P01024 672-1663 limits assumed, chain 2 of 2): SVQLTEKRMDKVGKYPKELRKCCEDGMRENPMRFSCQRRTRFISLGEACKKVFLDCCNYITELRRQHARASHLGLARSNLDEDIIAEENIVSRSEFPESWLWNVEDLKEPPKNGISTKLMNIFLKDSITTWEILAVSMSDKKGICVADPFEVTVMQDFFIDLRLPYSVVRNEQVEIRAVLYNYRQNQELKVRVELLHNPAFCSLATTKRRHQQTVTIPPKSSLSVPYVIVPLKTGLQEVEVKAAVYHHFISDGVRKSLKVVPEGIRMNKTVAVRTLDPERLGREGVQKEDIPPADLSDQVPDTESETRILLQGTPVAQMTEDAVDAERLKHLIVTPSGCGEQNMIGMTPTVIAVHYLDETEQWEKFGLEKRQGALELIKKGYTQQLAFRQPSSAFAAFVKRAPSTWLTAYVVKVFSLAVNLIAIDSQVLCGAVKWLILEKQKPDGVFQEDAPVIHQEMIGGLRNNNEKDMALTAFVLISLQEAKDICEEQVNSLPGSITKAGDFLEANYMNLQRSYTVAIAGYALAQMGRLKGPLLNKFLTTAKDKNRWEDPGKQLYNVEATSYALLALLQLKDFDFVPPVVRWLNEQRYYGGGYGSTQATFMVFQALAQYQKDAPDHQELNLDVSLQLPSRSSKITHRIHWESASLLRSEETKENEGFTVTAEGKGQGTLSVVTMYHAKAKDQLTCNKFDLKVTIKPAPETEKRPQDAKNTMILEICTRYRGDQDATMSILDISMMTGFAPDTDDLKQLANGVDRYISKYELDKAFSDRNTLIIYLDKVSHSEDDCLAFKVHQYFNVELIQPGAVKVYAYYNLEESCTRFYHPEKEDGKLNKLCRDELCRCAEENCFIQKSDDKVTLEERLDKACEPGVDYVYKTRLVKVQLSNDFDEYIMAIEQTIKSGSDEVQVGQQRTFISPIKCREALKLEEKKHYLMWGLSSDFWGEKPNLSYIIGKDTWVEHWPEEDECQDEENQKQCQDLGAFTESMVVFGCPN

Molecule	Kd [6] [pM]	Kd [7] [pM]	Kd [8] [pM]	IC50; hemolysis CP, 20% human serum [9] [pM]	IC50 (read off the curve); hemolysis CP, 5% cyno serum [10] [pM]	Kd [12] [pM]	Kd [13] [pM]	koff [8] [s⁻¹]	kon [8] [M⁻¹ s⁻¹]	Kd [14] [pM]	koff [14] [s⁻¹]	kon [14] [M⁻¹ s⁻¹]	binding result (human complement C3)	also measured
5G1.1 (antibody)	24	19	56											IC50; hemolysis AP, 100 pM human C5 [panel a] [1]: 0.14 nM; IC50; hemolysis AP, 100 pM human C5 [panel c] [1]: 0.205 nM; IC50; hemolysis AP, 100 pM human C5 [panel i] [2]: 58.2 pM; IC50; hemolysis AP, 100 pM cyno C5 in 20% human C5-depleted serum [panel a] [3]: 1.71 nM; IC50 (read off the curve); hemolysis AP, 100 pM human C5 [panel b] [4]: 90 pM; IC50 (read off the curve); C5a ELISA on AP hemolysis supernatants, 20% human serum [panel d] [5]: 20000 pM; IC50 (read off the curve); hemolysis AP, 20% human serum [panel c] [5]: 50000 pM
B1	5	3	31	21500	~20000	14	17	3.07e-05	1e+06	144	0.000128	891000		IC50 (read off the curve); hemolysis AP, 100 pM human C5 [panel a] [11]: ~0.1 nM
B2														binding result [15]: binds
B3	1	2	15	34200	~30000	5	4	3.12e-05	2.09e+06	31	3.13e-05	1.06e+06		IC50 (read off the curve); hemolysis AP, 100 pM human C5 [panel c] [11]: ~20 pM; IC50 (read off the curve); hemolysis AP, 20% human serum [panel c] [16]: ~50000 pM
B4													no binding (tested: 100 nM)	
B5													no binding (tested: 100 nM)	

From patent US20130064836A1 (Novartis, published 2013)
